The assay deals with T1, Escherichia coli HSP70 family member DnaK (Escherichia coli, UniProt P0A6Y8).
T1 construct: purchased Stressgen (Ann Arbor, Mich., USA) SPP-630
T1 sequence (P0A6Y8 whole entry): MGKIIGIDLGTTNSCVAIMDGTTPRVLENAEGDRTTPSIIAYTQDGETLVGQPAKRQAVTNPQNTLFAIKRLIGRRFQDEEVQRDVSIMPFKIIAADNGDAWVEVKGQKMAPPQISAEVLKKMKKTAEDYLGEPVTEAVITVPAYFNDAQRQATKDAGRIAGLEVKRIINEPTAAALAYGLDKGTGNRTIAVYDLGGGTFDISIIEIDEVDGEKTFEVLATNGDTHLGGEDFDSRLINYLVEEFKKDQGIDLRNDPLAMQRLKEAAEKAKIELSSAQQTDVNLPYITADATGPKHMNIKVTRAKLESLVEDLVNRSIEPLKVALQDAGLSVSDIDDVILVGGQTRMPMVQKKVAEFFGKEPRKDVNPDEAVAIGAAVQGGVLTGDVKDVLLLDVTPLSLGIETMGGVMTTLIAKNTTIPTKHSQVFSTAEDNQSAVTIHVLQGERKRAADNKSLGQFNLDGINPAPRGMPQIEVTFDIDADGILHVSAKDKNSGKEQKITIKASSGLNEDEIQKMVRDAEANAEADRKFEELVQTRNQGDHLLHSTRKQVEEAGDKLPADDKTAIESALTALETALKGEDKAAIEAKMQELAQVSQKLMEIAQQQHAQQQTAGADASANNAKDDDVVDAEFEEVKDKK
As to the kind of experiment: ELISA: binding of DnaK to immobilized (misfolded) protein ligands. How it is done:
Recombinant Escherichia coli (E. coli) DnaK was purchased from Stressgen (Ann Arbor, Mich., USA; SPP-630). For the binding studies first lot B502468 (100 μg, lot A) and then lot 05240609 (200 μg, lot B) was used.
Binding of chaperones to immobilized (misfolded) protein ligands was determined using an enzyme linked immuno sorbent assay (ELISA) approach. For this purpose 50 μl/well of potential ligands at indicated concentrations or coat buffer only for control and background measurement purposes, were coated overnight at 4° C. or coated for 1 h at room temperature, with motion, in 50 mM NaHCO3 pH 9.6 (coat buffer). In general, ligands were coated at 5 μg/ml, unless stated otherwise. For example, BiP binding peptides 6BB# and oxLDL were coated at 50 μg/ml. Native haemoglobin (Sigma-Aldrich, H7379), albumin, IgIV Gammagard and ovalbumin controls were prepared from lyophilized stocks. The controls were prepared by dissolving lyophilized proteins at 1 mg/ml in PBS upon resuspending by pipetting, followed by a 30 minutes period at the roller device, at room temperature. The protein solutions were centrifuged for 10 minutes at 16,000*g and diluted in coat buffer. After coating the plates were washed at least three times with 50 mM Tris-HCl pH 7.3, 150 mM NaCl, 0.1% v/v Tween20, and blocked with Blocking reagent (Roche Diagnostics, Almere, The Netherlands; 11112589001), for 1 h at room temperature, with motion. Plates were washed three times and incubated in triplicate with indicated chaperone dilution series, at 50 μl/well, for 1 h at room temperature, with constant motion. For HSP90, 5 mM DTT is incorporated in the binding buffer (PBS/0.1% Tween20) to avoid unwanted disulfide bond formation of the HSP90. Plates were washed three times and incubated with anti-FLAG antibody (mouse antibody, M2, peroxidase conjugate; Sigma, A-8592) for BiP-FLAG-His, anti-His-tag antibody (Mouse Monoclonal Antibody, Cat. No. 70796, Novagen [0.2 mg/ml]) for HSP60, a 1:1 mix of 500-fold diluted anti-HSP90beta antibodies (Stressgen, SPA-643 [mouse monoclonal IgM], SPA-646 [rabbit polyclonal]) for HSP90 and an anti-DnaK antibody (Stressgen, 023SPA-880D [mouse monoclonal antibody]) for DnaK. After four wash cycles, secondary antibodies were added to the wells when required, 50 μl/well, for 45′ at room temperature, with motion. RAMPO and SWARPO were used at 3000 times dilution. […] In a second experiment with more immobilized misfolded proteins and controls, the detection of bound HSP90 with the mix of two anti-HSP90 antibodies was achieved by mixing 1:1500 SWARPO with 1:3000 RAMPO. After 5 washes with wash buffer followed by two washes with PBS, binding of antibodies was assessed. Bound anti-FLAG-PO, peroxidase-conjugated rabbit anti-mouse immunoglobulins (RAMPO, P0260, DAKOCytomation, Glostrup, Denmark) or peroxidase-coupled swine anti-rabbit immunoglobulins (SWARPO, P0217, DAKOCytomation) was visualized with tetramethylbenzidine (TMB, #45.01.20,/#45.014.01, Biosource, Nivelles, Belgium). The reaction was stopped after 5 minutes with 1% H2SO4 in H2O. Plates were read at 450 nm. Triplicates were averaged and standard deviations calculated. Background signals obtained with buffer-coated wells were subtracted (binding of primary antibody to empty wells), as well as background signals obtained with ligand-coated wells in which the chaperones were omitted (binding of primary and secondary antibody to coated ligands). Subsequently, sub-optimal concentrations of chaperones for binding to misfolded protein ligands are determined, and these concentrations are used for inhibition studies. […] We have previously identified that a sub-fraction of IgIV molecules has affinity for misfolded proteins comprising crossbeta structure (pending patent application). Moreover, we identified that the sub-fraction of IgIV molecules directly binds to crossbeta structure and/or crossbeta structure induced conformation (not shown; pending patent application). […]
Consider GSNKGAIIGLM [6BB6, Human Aβ (25-35)], for which the “Binding of concentration series of DnaK to coated ligand” value is listed as “has been established”.
To AGEYYAAL [6BB7] belongs “No binding”; to “native BSA: non-modified bovine serum albumin control”, “No binding”.
The entry for “HbAGE: human haemoglobin glycated with glucose-6-phosphate for 75 weeks” is “has been established”; for “Hb: non-modified human haemoglobin control” it is “Low binding”; for KLVFFAE [6BB12, Human Aβ16-22] it is “did not bind”.
Consider BSA-AGE, for which the “Binding of concentration series of DnaK to coated ligand” value is “has been established”.

The values above are taken from US20100015126A1, “Methods of Binding of Cross-Beta Structures By Chaperones” (priority 2006, published 2010).
